Measurements taken from paper PMC11835620, “CleanCap M6 inhibits decapping of exogenously delivered IVT mRNA”.

Target: eIF4E (human, UniProt P06730 1-217)
Test: EMSA; KD measured but printed only in the figure; higher affinity than M6 3'OMe; EMSA: 25 nM oligo, eIF4E 5 nM to 1.5 uM (2-fold dilutions), 100 mM NaCl, 50 mM Tris-Cl (pH and remaining components cut off in material), temperature not given
Conditions: protein: recombinant; (stated for spectral shift oligos); single strand

Chain of eIF4E (P06730 whole entry): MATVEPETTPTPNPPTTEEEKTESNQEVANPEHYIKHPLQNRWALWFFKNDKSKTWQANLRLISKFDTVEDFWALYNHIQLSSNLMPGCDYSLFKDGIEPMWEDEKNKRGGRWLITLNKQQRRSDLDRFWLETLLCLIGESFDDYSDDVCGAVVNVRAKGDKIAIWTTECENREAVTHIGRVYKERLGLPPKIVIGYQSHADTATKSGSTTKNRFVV

AGGAAAUAAGAGAGAAAAGAAGAGUAAGAAGAAAUAUAAGAGC (ssRNA, 5' cap m7GpppA(2'OMe)G; A1 is 2'-O-methyl; cap m7G not in strand) [AG 3'OH cap 43-mer]
binding result: binds
